From patent US20210388087A1 (Chugai, published 2021)
Where a chain is given by its changes, count along the chain named.

B1: H183/L072 VL L33Y (antibody, name in Kabat numbering, V domains shown)
VH: QVQLVESGGGLVQPGRSLRLSCAASGFTFSNAWMHWVRQAPGKGLEWVAQIKDKGNAYAAYYAPSVKGRFTISRDDSKNSIYLQMNSLKTEDTAVYYCHYVHYASASTVLPAFGVDAWGQGTTVTVSS
VL: DIVMTQSPLSLPVTPGEPASISCQASQELVHMNRNTYYHWYQQKPGQAPRLLIYKVSNRFPGVPDRFSGSGSGTDFTLKISRVEAEDVGVYYCAQGTSVPFTFGQGTKLEIK
notes: Dual-Ig
B2: H183/L072 VL N30I (antibody, name in Kabat numbering, V domains shown)
VH: B1 VH
VL: B1 VL with N35I, Y38L
notes: Dual-Ig
B3: H183/L072 VL M27eW (antibody, name in Kabat numbering, V domains shown)
VH: B1 VH
VL: B1 VL with M32W, Y38L
notes: Dual-Ig
B4: H183/L072 VL M27eE (antibody, name in Kabat numbering, V domains shown)
VH: B1 VH
VL: B1 VL with M32E, Y38L
notes: Dual-Ig
B5: H183/L072 VL N28Q (antibody, name in Kabat numbering, V domains shown)
VH: B1 VH
VL: B1 VL with N33Q, Y38L
notes: Dual-Ig
B6: H183/L072 VL N28W (antibody, name in Kabat numbering, V domains shown)
VH: B1 VH
VL: B1 VL with N33W, Y38L
notes: Dual-Ig
B7: H183/L072 VL N28L (antibody, name in Kabat numbering, V domains shown)
VH: B1 VH
VL: B1 VL with N33L, Y38L
notes: Dual-Ig
B8: H183/L072 VL M27eF (antibody, name in Kabat numbering, V domains shown)
VH: B1 VH
VL: B1 VL with M32F, Y38L
notes: Dual-Ig
B9: H183/L072 VL N28E (antibody, name in Kabat numbering, V domains shown)
VH: B1 VH
VL: B1 VL with N33E, Y38L
notes: Dual-Ig
B10: H183/L072 VL N30D (antibody, name in Kabat numbering, V domains shown)
VH: B1 VH
VL: B1 VL with N35D, Y38L
notes: Dual-Ig
B11: H183/L072 VL M27eT (antibody, name in Kabat numbering, V domains shown)
VH: B1 VH
VL: B1 VL with M32T, Y38L
notes: Dual-Ig
B12: H183/L072 VL N30E (antibody, name in Kabat numbering, V domains shown)
VH: B1 VH
VL: B1 VL with N35E, Y38L
notes: Dual-Ig
B13: H183/L072 VL N28V (antibody, name in Kabat numbering, V domains shown)
VH: B1 VH
VL: B1 VL with N33V, Y38L
notes: Dual-Ig
B14: H183/L072 VL N28Y (antibody, name in Kabat numbering, V domains shown)
VH: B1 VH
VL: B1 VL with N33Y, Y38L
notes: Dual-Ig
B15: H183/L072 VL M27eG (antibody, name in Kabat numbering, V domains shown)
VH: B1 VH
VL: B1 VL with M32G, Y38L
notes: Dual-Ig
B16: H183/L072 VL M27eV (antibody, name in Kabat numbering, V domains shown)
VH: B1 VH
VL: B1 VL with M32V, Y38L
notes: Dual-Ig
B17: H183/L072 VL N28T (antibody, name in Kabat numbering, V domains shown)
VH: B1 VH
VL: B1 VL with N33T, Y38L
notes: Dual-Ig
B18: H183/L072 VL M27eK (antibody, name in Kabat numbering, V domains shown)
VH: B1 VH
VL: B1 VL with M32K, Y38L
notes: Dual-Ig
B19: H183/L072 VL N28M (antibody, name in Kabat numbering, V domains shown)
VH: B1 VH
VL: B1 VL with N33M, Y38L
notes: Dual-Ig
B20: H183/L072 VL N28H (antibody, name in Kabat numbering, V domains shown)
VH: B1 VH
VL: B1 VL with N33H, Y38L
notes: Dual-Ig
B21: H183/L072 VL M27eN (antibody, name in Kabat numbering, V domains shown)
VH: B1 VH
VL: B1 VL with M32N, Y38L
notes: Dual-Ig
B22: H183/L072 VL N28A (antibody, name in Kabat numbering, V domains shown)
VH: B1 VH
VL: B1 VL with N33A, Y38L
notes: Dual-Ig
B23: H183/L072 VL N30M (antibody, name in Kabat numbering, V domains shown)
VH: B1 VH
VL: B1 VL with N35M, Y38L
notes: Dual-Ig
B24: H183/L072 VL M27eQ (antibody, name in Kabat numbering, V domains shown)
VH: B1 VH
VL: B1 VL with M32Q, Y38L
notes: Dual-Ig
B25: H183/L072 VL M27eP (antibody, name in Kabat numbering, V domains shown)
VH: B1 VH
VL: B1 VL with M32P, Y38L
notes: Dual-Ig
B26: H183/L072 VL M27eA (antibody, name in Kabat numbering, V domains shown)
VH: B1 VH
VL: B1 VL with M32A, Y38L
notes: Dual-Ig
B27: H183/L072 VL N28G (antibody, name in Kabat numbering, V domains shown)
VH: B1 VH
VL: B1 VL with N33G, Y38L
notes: Dual-Ig
B28: H183/L072 VL M27eL (antibody, name in Kabat numbering, V domains shown)
VH: B1 VH
VL: B1 VL with M32L, Y38L
notes: Dual-Ig
B29: H183/L072 VL N28I (antibody, name in Kabat numbering, V domains shown)
VH: B1 VH
VL: B1 VL with N33I, Y38L
notes: Dual-Ig
B30: H183/L072 VL N28F (antibody, name in Kabat numbering, V domains shown)
VH: B1 VH
VL: B1 VL with N33F, Y38L
notes: Dual-Ig
B31: H183/L072 VL N30F (antibody, name in Kabat numbering, V domains shown)
VH: B1 VH
VL: B1 VL with N35F, Y38L
notes: Dual-Ig
B32: H183/L072 VL M27eY (antibody, name in Kabat numbering, V domains shown)
VH: B1 VH
VL: B1 VL with M32Y, Y38L
notes: Dual-Ig
B33: H183/L072 VL N30H (antibody, name in Kabat numbering, V domains shown)
VH: B1 VH
VL: B1 VL with N35H, Y38L
notes: Dual-Ig
B34: H183/L072 VL N30G (antibody, name in Kabat numbering, V domains shown)
VH: B1 VH
VL: B1 VL with N35G, Y38L
notes: Dual-Ig
B35: H183/L072 VL M27eS (antibody, name in Kabat numbering, V domains shown)
VH: B1 VH
VL: B1 VL with M32S, Y38L
notes: Dual-Ig
B36: H183/L072 VL N28S (antibody, name in Kabat numbering, V domains shown)
VH: B1 VH
VL: B1 VL with N33S, Y38L
notes: Dual-Ig
B37: H183/L072 VL N28P (antibody, name in Kabat numbering, V domains shown)
VH: B1 VH
VL: B1 VL with N33P, Y38L
notes: Dual-Ig
B38: H183/L072 VL N30K (antibody, name in Kabat numbering, V domains shown)
VH: B1 VH
VL: B1 VL with N35K, Y38L
notes: Dual-Ig
B39: H183/L072 VL M27eR (antibody, name in Kabat numbering, V domains shown)
VH: B1 VH
VL: B1 VL with M32R, Y38L
notes: Dual-Ig
B40: H183/L072 VL M27eD (antibody, name in Kabat numbering, V domains shown)
VH: B1 VH
VL: B1 VL with M32D, Y38L
notes: Dual-Ig
B41: H183/L072 VL N28K (antibody, name in Kabat numbering, V domains shown)
VH: B1 VH
VL: B1 VL with N33K, Y38L
notes: Dual-Ig
B42: H183/L072 VL N30L (antibody, name in Kabat numbering, V domains shown)
VH: B1 VH
VL: B1 VL with N35L, Y38L
notes: Dual-Ig
B43: H183/L072 VL N28R (antibody, name in Kabat numbering, V domains shown)
VH: B1 VH
VL: B1 VL with N33R, Y38L
notes: Dual-Ig
B44: H183/L072 VL M27eI (antibody, name in Kabat numbering, V domains shown)
VH: B1 VH
VL: B1 VL with M32I, Y38L
notes: Dual-Ig
B45: H183/L072 VL N30A (antibody, name in Kabat numbering, V domains shown)
VH: B1 VH
VL: B1 VL with N35A, Y38L
notes: Dual-Ig
B46: H183/L072 VL M27eH (antibody, name in Kabat numbering, V domains shown)
VH: B1 VH
VL: B1 VL with M32H, Y38L
notes: Dual-Ig

The binders below were run against T1, Human CD137 ECD (human) (assay: Biacore SPR, vs parent H183/L072).
T1 construct: entry includes C-terminal His-tag and biotin acceptor peptide; also called human CD137 extracellular domain; 4-1BB
T1 sequence (chain, as listed by the source limits assumed): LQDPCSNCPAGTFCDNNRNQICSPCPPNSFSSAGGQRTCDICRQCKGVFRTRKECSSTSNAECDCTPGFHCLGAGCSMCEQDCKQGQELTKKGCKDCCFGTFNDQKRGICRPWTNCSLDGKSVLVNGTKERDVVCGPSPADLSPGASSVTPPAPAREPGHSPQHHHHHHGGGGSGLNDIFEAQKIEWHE
With B1 the “fold change of affinity” value was 0.1 fold. For B2, the “fold change of affinity” value was 0.3 fold. For B3, the “fold change of affinity” value was 0.7 fold. With B4 the “fold change of affinity” value was 0.9 fold. B5 was tested, and the “fold change of affinity” value was 0.4 fold. For B6, the “fold change of affinity” value was 0.3 fold. For B7, the “fold change of affinity” value was 0.3 fold. For B8, the “fold change of affinity” value was 0.7 fold. B9 was tested, and the “fold change of affinity” value was 0.2 fold. For B10, the “fold change of affinity” value was 0.1 fold. For B11, the “fold change of affinity” value was 0.9 fold. With B12 the “fold change of affinity” value was 0.1 fold. B13 was tested, and the “fold change of affinity” value was 0.3 fold. In the case of B14, the “fold change of affinity” value is reported as 0.4 fold. With B15 the “fold change of affinity” value was 0.7 fold. In the case of B16, the “fold change of affinity” value is reported as 0.9 fold. With B17 the “fold change of affinity” value was 0.5 fold. B18 was tested, and the “fold change of affinity” value was 1.1 fold. With B19 the “fold change of affinity” value was 0.4 fold. In the case of B20, the “fold change of affinity” value is reported as 0.4 fold. In the case of B21, the “fold change of affinity” value is reported as 0.8 fold. In the case of B22, the “fold change of affinity” value is reported as 0.4 fold. In the case of B23, the “fold change of affinity” value is reported as 1.8 fold. In the case of B24, the “fold change of affinity” value is reported as 1 fold. With B25 the “fold change of affinity” value was 1 fold. B26 was tested, and the “fold change of affinity” value was 1 fold. B27 was tested, and the “fold change of affinity” value was 0.5 fold. For B28, the “fold change of affinity” value was 0.8 fold. With B29 the “fold change of affinity” value was 0.3 fold. In the case of B30, the “fold change of affinity” value is reported as 0.4 fold. In the case of B31, the “fold change of affinity” value is reported as 0.9 fold. For B32, the “fold change of affinity” value was 0.7 fold. With B33 the “fold change of affinity” value was 1 fold. For B34, the “fold change of affinity” value was 0.9 fold. For B35, the “fold change of affinity” value was 0.9 fold. In the case of B36, the “fold change of affinity” value is reported as 0.5 fold. B37 was tested, and the “fold change of affinity” value was 0.4 fold. In the case of B38, the “fold change of affinity” value is reported as 0.6 fold. With B39 the “fold change of affinity” value was 1 fold. With B40 the “fold change of affinity” value was 0.7 fold. With B41 the “fold change of affinity” value was 0.3 fold. In the case of B42, the “fold change of affinity” value is reported as 0.3 fold. With B43 the “fold change of affinity” value was 0.4 fold. With B44 the “fold change of affinity” value was 0.9 fold. In the case of B45, the “fold change of affinity” value is reported as 0.7 fold. With B46 the “fold change of affinity” value was 0.8 fold.
